For experiment [1], the target named is T1, cMet-Ig protein (biotinylated) (UniProt P08581 25-929, biotinylated with NHS-X-biotin).
T1 construct: Purified cMet-Ig produced at Genentech; also called cMet-Ig-biotin; not shown: Ig part not described
Nature of the experiment: electrochemiluminescent competition assay: antibody (3333-0.21 nM) against HGF-Ruthenium Tag binding to cMet-Ig-biotin. The method, then: (§1) Purified cMet-Ig protein produced at Genentech (South San Francisco, Calif.) was biotinylated by incubating with 20-fold molar excess NHS-X-Biotin in 0.1 M NaHCO3, pH 8.5 using biotin-X-NHS (Research Organics, Cleveland, Ohio). Purified human 2-chain HGF produced at Genentech was labeled with BV-TAG (cat #110034) via NHS-ester chemistry according to manufacturer's directions (BioVeris International, Gaithersburg, Md.). cMet-Ig-biotin (500 ng/mL), HGF-Ruthenium Tag (250 ng/mL), and titrations of OA5D5 antibody ranging from 3333-0.21 nM of antibody were incubated together in a volume of 100 ul of assay diluent: PBS ±0.5% BSA/0.5% Tween 20/0.033% Proclin (Supelco Inc. Bellefonte Pa.). The mixtures were incubated in sealed polypropylene round bottom 96 well plates (Corning) for 2-4 hours at room temperature with shaking Streptavidin magnetic beads (Dynabeads, BioVeris) were added. Following a final 45 min incubation with vigorous shaking, the plates were read using a BioVeris M-Series instrument (BioVeris International, Gaithersburg, Md.).

Experiment [2] concerns the target human c-Met on cells (BaF3-hMet transfected with full-length human c-Met cDNA; A549 and H358 cells) (human, UniProt P08581 25-1390). As to the kind of experiment: cell-based or functional assay.
Another experiment has as its target canine HGF receptor (canine, UniProt Q75ZY9 25-935, limits assumed). Nature of the experiment: cross-species binding test, method not described (data not shown).
The target in experiment [3] is murine (mouse) HGF receptor (murine (mouse), UniProt P16056 25-931, limits assumed). The experiment is described as above.
Experiment [4] has as its target T1, cMet-Ig protein (biotinylated). Nature of the experiment: electrochemiluminescent competition assay in solution: inhibition of 2.5 nM HGF-Tag (ruthenium-labelled HGF) binding to 5 nM cMet-biotin; antibody titrated. The method, then:
as §1

The target of experiment [5] is T2, human HGF receptor Fc fusion (HGFR-Fc) (human, UniProt P08581 25-929, limits assumed).
T2 construct: Generated and used as an Fc fusion; also called HFGR-Fc; b-HGFR-Fc (biotinylated)
As to the kind of experiment: SPR (Biacore), monovalent affinity, HGFR-Fc; murine 5D5, monovalent affinity.

Experiment [6] concerns the target T2, human HGF receptor Fc fusion (HGFR-Fc). As to the kind of experiment: SPR (BIAcore-2000), HGFR-Fc immobilised on a CM5 chip, 1:1 Langmuir fit. The method, then:
(§2) Affinity determinations were performed by surface plasmon resonance using a BIAcore™-2000. HGFR-Fc was immobilized (˜1000 response units (RU)) on a CM5 chip and varied concentrations of Fab (4 to 500 nM) in PBST were injected. After each injection the chip was regenerated using 100 mM HCl. Binding response was corrected by subtracting the RU from a blank flow cell. A 1:1 Languir model of simultaneous fitting of kₒₙ and koff was used for kinetics analysis.
In general terms: Surface plasmon resonance follows binding to a sensor surface in real time, without labels.

Experiment [7] has the same target. As to the kind of experiment: SPR (BIAcore-2000), HGFR-Fc immobilised on a CM5 chip, Fab injected at 4 to 500 nM, 1:1 Langmuir fit. The method, then:
as §2

Experiment [8] has the same target. As to the kind of experiment: SPR (BIAcore-2000), Fab injected over immobilized HGFR-Fc; humanized clone (5D5 graft plus R94S) as Fab. The method, then: as §2
A library was generated in which each of the HVR regions of the 5D5 graft was soft randomized. This library was panned against immobilized HGFR-Fc for 4 rounds of selection. […] Analysis of this clone by phage ELISA indicated it had similar affinity to that of the monovalent affinity of murine 5D5. […] Thus this unexpected substitution restores full binding affinity to the 5D5 graft, and the 5D5 graft plus R94S (hu5D5.v1) represents a fully humanized antibody. […] MacCallum et al. (MacCallum et al. J. Mol. Biol. 262: 732-745 (1996)) have analyzed antibody and antigen complex crystal structures and found positions 93 and 94 of the heavy chain are part of the contact region thus it seems reasonable to include these positions in the definition of hypervariable region of H3 (HVR-H3) when humanizing antibodies.

Experiment [9] shares this target. Nature of the experiment: SPR (Biacore), Fab over immobilized HGFR-Fc; reference hu5D5.v1. The method, then: as §2
Affinity maturation of hu5D5.v1 —To improve the affinity of hu5D5.v1, six phage display libraries were generated in the background of hu5D5.v1, each targeting a single HVR for soft randomization. To avoid re-selecting hu5D5.v1 from a potential high background of wild-type template, stop codons were introduced into the HVR to be mutated prior to generating each library. A solution sorting method was used to enhance the efficiency of the affinity-based phage selection process. By manipulating the biotinylated target concentration, reducing the phage capture time to lower backgrounds and the addition of unbiotinylated target to eliminate clones with faster off rates, high affinity clones can be proficiently selected. Lee et al., supra. […] After 4 rounds of selection, clones from each of the […] library pools were analyzed. […] Selected clones were screened by phage ELISA and then expressed as Fab protein and their affinity determined using Biacore. […]

Experiment [10] has the same target. Nature of the experiment: SPR (BIAcore-2000), HGFR-Fc immobilised on a CM5 chip.

Positions count from the first letter of the chain named. In names and notes the source's numbering stands.

B1: OA-5D5.v2 one-armed anti-Met antibody (antibody)
light: DIQMTQSPSSLSASVGDRVTITCKSSQSLLYTSSQKNYLAWYQQKPGKAPKLLIYWASTRESGVPSRFSGSGSGTDFTLTISSLQPEDFATYYCQQYYAYPWTFGQGTKVEIKRTVAAPSVFIFPPSDEQLKSGTASVVCLLNNFYPREAKVQWKVDNALQSGNSQESVTEQDSKDSTYSLSSTLTLSKADYEKHKVYACEVTHQGLSSPVTKSFNRGEC
heavy: not shown
chain: not shown
notes: also called rhuOA5D5v2; one-armed 5D5.v2
A word on the IC50: it is the concentration that gives 50% inhibition. In the case of B1, the “IC50 relative to comparator antibody (chimeric one-armed antibody, OA-5D5.v1)” value in [1] was < 0.5 fold of the comparator's IC50. Further, in [2], the “inhibition of HGF receptor activation (KIRA, HGF-dependent Met phosphorylation in A549 cells); IC50 relative to comparator antibodies” value was < 0.5 fold of the comparator's IC50 and the “inhibition of cell proliferation in the presence of HGF (BaF3-hMet cells); IC50 relative to comparator antibodies” value is < 0.5 fold of the comparator's IC50. Further, the binding result in the experiment with canine HGF receptor is recorded as “no binding”. For the same molecule, the binding result in experiment [3] is given as “no binding”. The molecule further displayed a 50% inhibitory concentration (IC50) in experiment [4] of 1 nM.

B2: murine 5D5 anti-c-met antibody, monovalent form (Fab, V domains shown)
VH: QVQLQQSGPELVRPGASVKMSCRASGYTFTSYWLHWVKQRPGQGLEWIGMIDPSNSDTRFNPNFKDKATLNVDRSSNTAYMLLSSLTSADSAVYYCATYGSYVSPLDYWGQGTSVTVSS
VL: DIMMSQSPSSLTVSVGEKVTVSCKSSQSLLYTSSQKNYLAWYQQKPGQSPKLLIYWASTRESGVPDRFTGSGSGTDFTLTITSVKADDLAVYYCQQYYAYPWTFGGGTKLEIKR
notes: also called mu5D5; hybridoma 5D5.11.6 (ATCC HB-11895)
By Kd is commonly meant the equilibrium constant for the complex coming apart. One may read the koff as a measure of how fast the partners let go of each other. In general, kon refers to the rate constant with which the complex forms. Take B2: in [5], binding was characterised by a dissociation constant (Kd) of 8.3 nM. In [6], this molecule came in with a koff of 0.000743 s⁻¹ and a kon of 89800 M⁻¹ s⁻¹.

B3: chimeric one-armed 5D5 antibody (Fab arm from the murine parent 5D5 antibody fused to a human Fc region) (antibody, V domains shown)
VH: B2 VH
VL: B2 VL
notes: also called rchOA5D5; chimeric one-armed antibody
In experiment [4], B3 displayed an IC50 of 2.6 nM.

B4: hu5D5.v1 (5D5 graft plus R94S), expressed as Fab (Fab, V domains shown)
VH: EVQLVESGGGLVQPGGSLRLSCAASGYTFTSYWLHWVRQAPGKGLEWVGMIDPSNSDTRFNPNFKDRFTISADTSKNTAYLQMNSLRAEDTAVYYCASYGSYVSPLDYWGQGTLVTVSS
VL: DIQMTQSPSSLSASVGDRVTITCKSSQSLLYTSSQKNYLAWYQQKPGKAPKLLIYWASTRESGVPSRFSGSGSGTDFTLTISSLQPEDFATYYCQQYYAYPWTFGQGTKVEIK
notes: Fab made in E. coli from the phage display vector (human CL and CH1); also called this clone
Consider B4, for which, in experiment [7], the koff was determined as 0.000507 s⁻¹ and the kon was found to be 51600 M⁻¹ s⁻¹. The Kd in experiment [8] worked out at 9.8 nM.

B5: hu5D5.v2 (clone 78), expressed as Fab (Fab, V domains shown)
VH: B4 VH with S98T, G100R, S104T
VL: DIQMTQSPSSLSASVGDRVTITCKSSQSLLYTSSQKNYLAWYQQKPGKAPKLLIYWASTRESGVPSRFSGSGSGTDFTLTISSLQPEDFATYYCQQYYAYPWTFGQGTKVEIKR
notes: Differs from hu5D5.v1 by 94T, 96R and 100T (Kabat, VH); Fab made in E. coli from the phage display vector (human CL and CH1)
In experiment [7], B5 yielded a Kd of 0.625 nM, a koff of 0.000147 s⁻¹ and a kon of 236000 M⁻¹ s⁻¹. In addition, the “fold affinity improvement (against hu5D5.v1)” value in experiment [9] stood at 13 fold.

B6: OA-5D5.v1 one-armed anti-Met antibody (antibody, V domains shown)
VH: B4 VH
VL: B4 VL
notes: One-armed antibody named only as another antibody of the invention (OA-5D5.v1); Its constant domains and Fc polypeptides are not described; also called rhuOA5D5v1
In experiment [4], B6 displayed an IC50 of 5.4 nM.

B7: 5D5 graft (direct HVR-graft of murine 5D5 into the human acceptor framework), displayed as an Fab on phage (Fab, V domains shown)
VH: B4 VH with S98R
VL: B4 VL
notes: subgroup III VH with R71A, N73T, L78A; grafted L1 24-34, L2 50-56, L3 89-97, H1 26-35, H2 49-65, H3 95-102; R at 94); In the assay it was a monovalent Fab-g3 fusion on phage with human CL and CH1 of the vector; also called direct HVR-graft of 5D5
Consider B7, for which the binding result in experiment [10] is on record as “no binding (tested: 500 nM)”.

(Values after patent publication US20120082663A1 (Genentech, published 2012).)
